Experimental findings from paper PMC3427372, “Proteomic Analysis Reveals New Cardiac-Specific Dystrophin-Associated Proteins” (PLoS ONE, 2012) are described below.

In this test the target is T1, Dystrophin (mouse (endogenous in cardiac and …, UniProt P11531 1-3678)).
T1 construct: dystrophin, mouse, the large (427 kDa) full-length form of muscle cells; also called full-length dystrophin; full length dystrophin; source: endogenous, mouse cardiac ventricle and skeletal muscle (quadriceps) lysate
In words: co-IP; DYS-IP (MANDYS1 cross-linked to protein G magnetic beads) from wild type mouse cardiac muscle lysate, 3 hr at 4°C, Western blot; controls IgG-IP and mdx. As to conditions: partners not purified.

T1 sequence (P11531 whole entry): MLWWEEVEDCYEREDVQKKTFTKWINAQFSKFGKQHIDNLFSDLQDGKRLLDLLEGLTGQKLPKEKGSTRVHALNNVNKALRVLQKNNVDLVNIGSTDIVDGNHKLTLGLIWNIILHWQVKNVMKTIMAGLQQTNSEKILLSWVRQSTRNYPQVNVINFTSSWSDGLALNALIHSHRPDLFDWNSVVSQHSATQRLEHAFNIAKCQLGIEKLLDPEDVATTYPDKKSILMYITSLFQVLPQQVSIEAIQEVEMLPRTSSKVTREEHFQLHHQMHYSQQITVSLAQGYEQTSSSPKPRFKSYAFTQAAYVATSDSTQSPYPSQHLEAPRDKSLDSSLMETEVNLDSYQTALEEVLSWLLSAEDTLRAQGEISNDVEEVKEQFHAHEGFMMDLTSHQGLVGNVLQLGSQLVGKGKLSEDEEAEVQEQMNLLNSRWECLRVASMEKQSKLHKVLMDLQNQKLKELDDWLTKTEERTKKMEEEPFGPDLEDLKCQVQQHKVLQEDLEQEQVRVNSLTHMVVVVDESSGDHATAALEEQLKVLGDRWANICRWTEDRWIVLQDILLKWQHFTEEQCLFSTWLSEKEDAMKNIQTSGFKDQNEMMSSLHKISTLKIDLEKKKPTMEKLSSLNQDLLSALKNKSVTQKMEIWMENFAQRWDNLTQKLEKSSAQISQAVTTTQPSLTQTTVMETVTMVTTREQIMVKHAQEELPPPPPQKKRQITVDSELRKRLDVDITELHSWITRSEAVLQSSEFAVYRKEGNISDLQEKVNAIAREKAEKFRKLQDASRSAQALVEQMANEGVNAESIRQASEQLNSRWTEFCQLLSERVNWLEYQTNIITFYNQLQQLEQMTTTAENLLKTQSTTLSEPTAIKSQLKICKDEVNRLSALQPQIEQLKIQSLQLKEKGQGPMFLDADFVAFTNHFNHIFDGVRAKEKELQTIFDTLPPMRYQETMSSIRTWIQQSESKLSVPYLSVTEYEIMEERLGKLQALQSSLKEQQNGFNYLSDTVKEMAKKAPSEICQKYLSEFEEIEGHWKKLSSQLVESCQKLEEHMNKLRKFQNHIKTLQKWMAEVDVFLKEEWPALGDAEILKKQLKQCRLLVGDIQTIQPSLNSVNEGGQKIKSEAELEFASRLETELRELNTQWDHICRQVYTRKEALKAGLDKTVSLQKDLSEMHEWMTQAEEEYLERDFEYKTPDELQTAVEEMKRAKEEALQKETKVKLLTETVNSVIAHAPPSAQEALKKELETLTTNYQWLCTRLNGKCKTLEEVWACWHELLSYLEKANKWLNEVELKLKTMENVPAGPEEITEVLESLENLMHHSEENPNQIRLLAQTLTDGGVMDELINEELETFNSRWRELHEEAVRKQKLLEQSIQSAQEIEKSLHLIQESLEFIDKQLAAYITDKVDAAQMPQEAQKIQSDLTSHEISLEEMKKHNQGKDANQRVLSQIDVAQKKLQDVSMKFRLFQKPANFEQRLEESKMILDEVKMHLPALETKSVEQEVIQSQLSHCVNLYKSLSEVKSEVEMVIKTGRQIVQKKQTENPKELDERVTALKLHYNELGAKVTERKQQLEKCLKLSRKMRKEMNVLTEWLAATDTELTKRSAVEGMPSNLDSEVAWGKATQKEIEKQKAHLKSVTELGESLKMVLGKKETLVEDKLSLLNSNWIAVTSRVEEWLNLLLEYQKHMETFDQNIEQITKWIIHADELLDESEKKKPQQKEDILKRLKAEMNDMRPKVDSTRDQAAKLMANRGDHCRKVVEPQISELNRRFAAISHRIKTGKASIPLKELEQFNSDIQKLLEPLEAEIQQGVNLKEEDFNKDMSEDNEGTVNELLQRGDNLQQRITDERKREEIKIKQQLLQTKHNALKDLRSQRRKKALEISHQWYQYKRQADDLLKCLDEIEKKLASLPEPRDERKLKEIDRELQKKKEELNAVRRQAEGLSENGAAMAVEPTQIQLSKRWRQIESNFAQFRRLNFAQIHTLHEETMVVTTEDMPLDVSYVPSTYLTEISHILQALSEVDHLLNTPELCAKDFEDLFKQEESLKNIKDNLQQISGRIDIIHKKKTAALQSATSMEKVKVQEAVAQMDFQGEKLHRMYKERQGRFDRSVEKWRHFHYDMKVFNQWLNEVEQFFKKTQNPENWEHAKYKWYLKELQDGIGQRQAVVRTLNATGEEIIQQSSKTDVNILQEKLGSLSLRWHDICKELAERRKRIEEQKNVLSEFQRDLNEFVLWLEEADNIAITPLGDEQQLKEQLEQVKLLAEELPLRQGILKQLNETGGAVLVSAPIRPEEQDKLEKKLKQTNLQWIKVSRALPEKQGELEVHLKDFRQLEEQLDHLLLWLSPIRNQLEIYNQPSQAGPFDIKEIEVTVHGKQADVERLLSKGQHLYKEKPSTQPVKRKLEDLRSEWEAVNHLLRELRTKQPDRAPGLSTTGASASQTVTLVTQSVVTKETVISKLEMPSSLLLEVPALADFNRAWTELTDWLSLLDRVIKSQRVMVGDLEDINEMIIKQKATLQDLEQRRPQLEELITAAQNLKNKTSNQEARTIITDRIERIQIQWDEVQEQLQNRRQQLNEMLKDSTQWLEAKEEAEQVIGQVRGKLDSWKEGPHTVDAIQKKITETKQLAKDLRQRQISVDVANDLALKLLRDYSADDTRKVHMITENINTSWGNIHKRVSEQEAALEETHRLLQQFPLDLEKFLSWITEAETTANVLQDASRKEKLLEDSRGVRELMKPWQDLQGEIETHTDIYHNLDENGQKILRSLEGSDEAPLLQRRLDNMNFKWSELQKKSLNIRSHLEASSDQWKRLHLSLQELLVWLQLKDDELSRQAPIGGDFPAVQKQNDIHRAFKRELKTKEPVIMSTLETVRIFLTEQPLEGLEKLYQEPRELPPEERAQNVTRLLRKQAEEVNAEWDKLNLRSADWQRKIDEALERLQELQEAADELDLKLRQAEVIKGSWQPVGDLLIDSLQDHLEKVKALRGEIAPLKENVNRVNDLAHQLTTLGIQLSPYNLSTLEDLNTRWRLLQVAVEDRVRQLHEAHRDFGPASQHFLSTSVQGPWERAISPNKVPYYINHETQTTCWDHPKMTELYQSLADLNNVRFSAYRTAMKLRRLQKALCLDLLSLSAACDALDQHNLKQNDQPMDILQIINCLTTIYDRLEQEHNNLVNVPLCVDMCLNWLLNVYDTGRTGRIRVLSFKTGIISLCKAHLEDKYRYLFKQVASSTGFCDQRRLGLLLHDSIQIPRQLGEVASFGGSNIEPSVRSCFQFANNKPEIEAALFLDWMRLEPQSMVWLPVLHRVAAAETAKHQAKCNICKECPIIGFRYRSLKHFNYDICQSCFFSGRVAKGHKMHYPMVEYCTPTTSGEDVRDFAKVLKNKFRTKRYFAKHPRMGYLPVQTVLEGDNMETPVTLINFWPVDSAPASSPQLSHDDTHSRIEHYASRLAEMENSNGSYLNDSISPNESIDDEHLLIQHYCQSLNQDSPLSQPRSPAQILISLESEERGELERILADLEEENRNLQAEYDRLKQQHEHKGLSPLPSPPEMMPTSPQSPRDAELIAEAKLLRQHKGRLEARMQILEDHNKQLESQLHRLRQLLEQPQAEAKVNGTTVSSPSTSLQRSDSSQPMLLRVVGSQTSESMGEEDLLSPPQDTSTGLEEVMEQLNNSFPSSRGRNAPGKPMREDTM

B1: β1-Syntrophin (natural protein, UniProt Q99L88 1-537, looked up)
chain: MAVAAAAVAAPAGGGGARAQRSGLLEVLVRDRWHKVLVNLSEDALVLSCEEGAAAYNGIGAATNGSFCRGSGTGHPVPGVAQAPDSPAGVRTAFTDLPEQVPESISNQKRGVKVLKQELGGLGISIKGGKENKMPILISKIFKGLAADQTQALYVGDAILSVNGADLRDATHDEAVQALKRAGKEVLLEVKYMREATPYVKKGSPVSEIGWETPPPESPRLGGGSAEPLSSQSFSFHRDRKSIPLKMCYVTRNMTLADPENRQLEIHSPDAKHTVILRSKDSATAQAWFSAIHSNAGDLLTRVVADIREQLGKTGIAGSREIRHLGWLAEKVPGESEKQWKPALVVLTEKDLLIYDSMPRRKEAWFSPVHSYPLLATRLVHSGPGKGSPQAGMDLSFATRTGTKQGIETHLFRAEISRDLSHWTRSIVQGCHNSAELTAEITTACTYRNQECRLTIHYDNGFSISTEPQDGAFPKTIIQSPYEKLKMSSDDGIRMLYLDFGGKEGEIQLDLHSCPKPIVFIIHSFLSAKITRLGLVA
notes: β1-syntrophin, mouse; source: endogenous, mouse cardiac ventricle and skeletal muscle (quadriceps) lysate
As to B1, the “fold less associated with dystrophin in cardiac than in skeletal muscle DYS-IPs” value amounted to 4 fold.

B2: α1-dystrobrevin (natural protein, UniProt Q9D2N4 1-746, looked up)
chain: MIEDSGKRGNTMAERRQLFAEMRAQDLDRIRLSTYRTACKLRFVQKKCNLHLVDIWNVIEALRENALNNLDPNIELNVARLEAVLSTIFYQLNKRMPTTHQIHVEQSISLLLNFLLAAFDPEGHGKISVFAVKMALATLCGGKIMDKLRYIFSMISDSSGVMVYGRYDQFLREVLKLPTAVFEGPSFGYTEQSARSCFSQQKKVTLNGFLDTLMSDPPPQCLVWLPLLHRLANVENVFHPVECSYCHSESMMGFRYRCQQCHNYQLCQDCFWRGHAGGSHSNQHQMKEYTSWKSPAKKLTNALSKSLSCASSREPLHPMFPDQPEKPLNLAHIVPPRPVTSMNDTLFSHSVPSSGSPFITRSSPPKDSEVEQNKMLARAAPAFLKGRGIQYSLNVADRLADEHVLIGLYVNMLRNDPPCMLESSNRLDEEHRLIARYAARLAAESSSSQPTQQRSAPDISFTIDANKQQRQLIAELENKNREILQEIQRLRVEHEQASQPTPEKAQQNPTLLAELRLLRQRKDELEQRMSALQESRRELMVQLEGLMKLLKEEELKQGTQGASSPRSSPSHTISRPIPMPIRSASACPTPTHTPQDSLTGVGGDVQEAFAQSSRRNLRSDLLVAADSITNTMSSLVKELNSEVASETESTVDSEFSRPQFEDLAPSPTSEKAFLAQIHSRKPGYIHGGAASTTHGDMVPEDGDPYTQPEDGNYENESVRQLENELQLEEYLKQKLQDEAYQVSLQG
notes: α-dystrobrevin splice variant α1, mouse; told apart on blots by molecular weight with a pan α-dystrobrevin antibody; also called DTNA1; source: endogenous, mouse cardiac ventricle and skeletal muscle (quadriceps) lysate
Regarding B2, the “fold less associated with dystrophin in cardiac than in skeletal muscle DYS-IPs” value is roughly 5 fold.
